# Results reported in patent publication US20120277143A1 (Janssen / Centocor, published 2012).
# T1: human IL4 (human, UniProt P05112 25-153, biotinylated in the SPR and competition assays (sites not given))
# T1 construct: Peprotech #200-04, mature protein produced in E. coli; also called hIL4; Interleukin 4
# T1 sequence: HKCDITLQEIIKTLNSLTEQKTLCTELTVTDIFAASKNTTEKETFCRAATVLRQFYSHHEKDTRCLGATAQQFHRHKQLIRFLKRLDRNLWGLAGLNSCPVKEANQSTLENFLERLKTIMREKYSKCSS
# Tests used:
# human IL4 [1] = target: T1, human IL4; experiment: SPR ProteOn, biotin-IL4 on neutravidin chip, 1:1 fit
# Procedure: Purified binders selected as “hits” were ranked by their affinity on a ProteOn XPR-36 instrument (Bio-Rad). ProteOn is an optical biosensor instrument that measures protein-protein interactions in real time, based on Surface Plasmon Resonance technology similar to Biacore (GE). A rapid experimental protocol was performed as follows: On a GLC sensor chip (Bio-Rad), Neutravidin (Thermo Scientific) was covalently immobilized to a density of >5000 RU using amine coupling chemistry as described by the manufacturer. On one flow cell, biotinylated IL4 (Peprotech) was immobilized to a level of 250 RU, while another flow cell was used as reference, with neutravidin immobilized only. […] The retrieved values were used to rank the AR proteins by their affinity.
# human IL4 [2] = target: T1, human IL4; experiment: cell-based or functional assay
# human IL4 [3] = target: T1, human IL4; experiment: Luminex competition, 67 pM biotin-IL4 binding to IL4RA-Fc beads
# Procedure: For biotinylation of IL4, recombinant human IL4 (Peprotech) was biotinylated at a 4:1 ratio using EZ-Link NHS-LC-Biotin (Pierce, #21336) for 2 hours at RT. The protein was dialyzed in PBS overnight to remove excess biotinylation reagent. Competition binding for cynomologous IL4 (SEQ ID NO: 5) was performed using the isolated protein biotinylated in the same manner.
# AR protein inhibition of IL4 binding to IL4 RA was assessed using IL4 RA-Fc (R&D Systems), comprising the Gly24-His232 which represents the ECD (SEQ ID NO: 5) fused to a human IgGl-Fc and therefor a disulfide linked homodimer. The protein was conjugated to carboxylated Luminex microspheres according to the manufacturer's protocol. For neutralization experiments, 5000 IL4RA-Fc conjugated beads in 50 μl were added to each well of a 96-well filter plate (Millipore). Biotinylated human IL4 was mixed with an appropriate dilution of AR protein in Luminex Assay Buffer (PBS, 1% BSA, pH 7.4) to give a final concentration of 67 pM IL4. The plate was incubated for 1 hour at RT in the dark on a plate shaker, set to shake vigorously to avoid bead aggregation. The plate was washed twice with 150 μl of wash buffer (PBS, 0.1% BSA, pH 7.4, 0.05% Tween-20) using a vacuum manifold followed by the addition of 50 μl of Streptavidin PE at 25 μg/ml and incubated at RT for 20 minutes. The plates were washed again and 150 μl of sheath fluid was added and the plate was placed on the shaker for 5 minute. Plates were read using a Luminex® 100 system; data were plotted as a function of AR protein concentration. IC₅₀ values were determined by fitting the data to the equation for sigmoidal dose response using PRISM software (GraphPAD PRISM) (Table 6).
# human IL13 [4] = target: T2, human IL13 (human, UniProt P35225 35-146, biotinylated in the SPR assays (sites not given)); experiment: SPR BIAcore, biotin-IL13 on SA chip, global fit
# T2 construct: Peprotech; also called hIL13; recombinant human IL13
# T2 sequence (P35225 other isoform, or with tags, fused parts or gaps limits assumed): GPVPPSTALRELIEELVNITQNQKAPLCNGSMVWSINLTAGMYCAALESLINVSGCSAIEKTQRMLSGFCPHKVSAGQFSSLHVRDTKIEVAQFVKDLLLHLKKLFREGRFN
# Procedure: Recombinant human IL13 (Peprotech) was minimally biotinylated on ice using sulfo-NHS-LCLC-Biotin and desalted into the experimental running buffer containing 10 mM HEPES, 150 mM NaCl, pH 7.4, 0.01% Tween-20, and 0.1 mg/mL BSA. Biotinylated IL13 was captured at three different surface densities (from about 150, 50, and 25 RU) onto three different BIAcore SA (streptavidin) sensor chips. Each binding protein sample was tested at 40 nM as the highest concentration in a 3-fold dilution series over the three different density IL13 surfaces. The dissociation phase for the highest concentration of the binding protein sample was monitored for one hour. The response data from each of the different density surfaces was globally fitted in order to extract estimates of the kinetic and affinity constants which are provided in Table 7 below.
# human IL13 [5] = target: T2, human IL13; experiment: cell-based or functional assay
# cyno IL13 = cyno IL13 (cynomolgus monkey, UniProt Q0PW92 21-132); experiment: cell-based or functional assay
# Chain of cyno IL13 (Q0PW92 entry or part of it): as the sequence (P35225 other isoform, or with tags, fused parts or gaps limits assumed) above, with G1S, R10K, M42V, S67N, H83R, L100V, R110Q counted along it
# human IL13 R130Q = target: T3, human IL13 R130Q (human, UniProt P35225 35-146, biotinylated (sites not given)); experiment: Luminex competition, 80 pM biotin-IL13 R130Q binding to IL13Ra2-Fc beads
# T3 construct: Peprotech; also called IL13R13Q; R111Q
# T3 sequence (P35225 35-146 limits assumed, stated change not applied): as the sequence (P35225 other isoform, or with tags, fused parts or gaps limits assumed) above, with R110Q counted along it
# Procedure: Binding protein inhibition of IL13 binding to Rα2 was assessed using IL13Rα2-Fc (R&D Systems) conjugated to carboxylated Luminex microspheres according to the manufacturer's protocol. For biotinylation of IL13, recombinant human IL13 R130Q (Peprotech) was biotinylated at a 4:1 ratio using EZ-Link NHS-LC-Biotin (Pierce, #21336) for 2 hours at RT. The protein was dialyzed in PBS overnight to remove excess biotinylation reagent. For neutralization experiments, 5000 IL13 Rα2-Fc conjugated beads in 50 μl were added to each well of a 96-well filter plate (Millipore). 50 μl of biotinylated human IL13 at 1 ng/ml (80 pM) was mixed with an appropriate dilution of binding protein in Luminex Assay Buffer (PBS, 1% BSA, pH 7.4). The plate was incubated for 1 hour at RT in the dark on a plate shaker, set to shake vigorously to avoid bead aggregation. The plate was washed 3 times with 150 μl of wash buffer (PBS, 1% BSA, pH 7.4, 0.05% Tween-20) using a vacuum manifold followed by the addition of 50 μl of Streptavidin PE at 25 μg/ml and incubated at RT for 20 minutes. The plates were washed again and 100 μl of sheath fluid was added and the plate was placed on the shaker for 1 minute. Plates were read using a Luminex® 100 system; data were plotted as a function of binding protein concentration. IC₅₀ values were determined by fitting the data to the equation for sigmoidal dose response using PRIZM software (GraphPAD PRIZM).
Binder,Kd (human IL4 [1]) [pM],koff (human IL4 [1]) [s⁻¹],kon (human IL4 [1]) [M⁻¹ s⁻¹],A549 TARC Inhibition IC50 (human IL4 [2]) [pM],HEK Stat6 Inhibition IC50 (human IL4 [2]) [pM],Type 1 Complex inhibition IC50 (human IL4 [2]) [pM],IC50 (human IL4 [3]) [pM],Kd (human IL13 [4]) [pM],koff (human IL13 [4]) [s⁻¹],kon (human IL13 [4]) [M⁻¹ s⁻¹],STAT6 Phospho IC50 (human IL13 [5]) [pM],TARC expression IC50 (human IL13 [5]) [pM],Cyno IL13 STAT6 IC50 (cyno IL13) [pM],IC50 (human IL13 R130Q) [pM]
"C06_44F6 (designed binder, ankyrin repeat protein; His-tagged, IMAC-purified) DLGKELLEAARAGQDDEVHILMANGADVNALDDSGYTPLHLAAEDGHLEIVEVLLKHGADVNAMDNIGNTSLHLAAFDGHLEIVEVLLKYGADVNAVDLAGVTPLHVAAFYGHLEIVEVLLKHGADVNAQDKFGKTAFDISIDNGNEDLAEILQKLN",96.7,0.0002,2.07e+06,142,6.4,24.9,15.8,,,,,,,
"C06_48F3 (designed binder, ankyrin repeat protein; His-tagged, IMAC-purified) DLGKKLLEAARAGQDDEVRILMANGADVNAFDDSGLTPLHLAADDGHLEIVEVLLKHGADVNAADRMGDTPLHLAAFVGHLEIVEVLLKYGADVNAVDLAGVTPLHVAAFYGHLEIVEVLLKYGADVNAQDKFGKTAFDISIDNGNEDLAEILQKLN",174,0.000151,872000,,4.7,,19.7,,,,,,,
"C06_53E9 (designed binder, ankyrin repeat protein; His-tagged, IMAC-purified) DLGKELLEAASAGQDDEVHILMANGADVNASDKDGSTPLHLAAVYGHLEIVEVLLKYGADVNAEDMNGYTPLHLAAADGHLEIVEVLLKYGADVDAKDRTGWTPLHLAGEFGHLEIVEVLLKYGADVNAQDKFGKTAFDISIDNGNEDLAEILQKLN",326,0.000281,862000,,14.3,,17.8,,,,,,,
"7D2 (designed binder, N-Cap-(AR)3-C-Cap) DLGKKLLEAARAGQDDEVRILMANGADVNAFDDFGSTPLHLAARSGHLEIVEVLLKHGADVNAHDMIGDTPLHLAAYHGHLEIVEVLLKYGADVNAKDTSGTTPLHLAADSGHLEIVEVLLKHGADVNAQDKFGKTAFDISIDNGNEDLAEILQKLN",,,,,,,,95.5,0.000292,3.06e+06,4.8,14.6,307,8.3
"5B9 (designed binder, N-Cap-(AR)3-C-Cap) DLGKKLLEAARAGQDDEVRILMANGADVNATDVFGSTPLHLAARHGHLEIVEVLLKHGADVNATDFIGDTPLHLAAYHGHLEIVEVLLKHGADVNAKNGETPLHLAAYHGHPDIVEVLLKHGADVNAQDKFGKTAFDISIDNGNEDLAEILQKLN",,,,,,,,169,0.000179,1.06e+06,16.5,372,654,13.4
"C06_6E9 (designed binder, ankyrin repeat protein; His-tagged, IMAC-purified) DLGKKLLEAARAGQDDEVRILMANGADVNAIDSDGTTPLHLAAMDGHLEIVEVLLKYGADVNAVDWNGDTPLHLAAVDGHLEIVEVLLKYGADVNAQDNLGDTPLHLAAYYGHLEIVEVLLKHGADVNASDFHGITPLHLAAFSGHLEIVEVLLKYGADVNAQDKFGKTAFDISIDNGNEDLAEILQKLN",74.9,7.16e-05,956000,131,0.6,0.4,7.6,,,,,,,
"C06_53G6 (designed binder, ankyrin repeat protein; His-tagged, IMAC-purified) NLGKKLLEAARAGQDDEVRILMANGADVNATDDWGDTLLHLAATDGHLEIVEVLLKYGADVNANDAIGDTPLHLAALYGHLEIVEVLLKYGADVNATDLHGFTPLHLAAFWGHLEIVEVLLKHGADVNAQDKFGKTAFDISIDNGNEDLAEILQKLN",73.4,5.11e-05,696000,135,2.1,0.9,16.1,,,,,,,
"5D12 (designed binder, N-Cap-(AR)3-C-Cap) DLGKKLLEAARAGQDDEVRILMANGADVNAVDDYGSTPLHLAARQGHLEIVEVLLKNGADVNADDFIGDTPLHLAAFKGHLEIVEVLLKNGADVNASDITGETPLHLAATAGHLEIVEVLLKHGADVNAQDKFGKTAFDISIDNGNEDLAEILQKLN",,,,,,,,168,0.000184,1.1e+06,5.4,34.1,159,10.2
"7C6 (designed binder, N-Cap-(AR)3-C-Cap) DLGKKLLEAARAGQDDEVRILMANGADVNAMDKYGSTPLHLAARSGHLEIVEVLLKHGADVNATDFIGDTPLHLAAYHGHLEIVEVLLKHGADVNAEDITGETPLHLAAESGHLEIVEVLLKHGADVNAQDKFGKTAFDISIDNGNEDLAEILQKLN",,,,,,,,46.4,0.000224,4.82e+06,2.7,159,48,10.6
"5H7 (designed binder, N-Cap-(AR)3-C-Cap) DLGKKLLEAARAGQDDEVRILMANGADVNAADMYGTTPQHLAARTGHLEIVEVLLKYGADVNAADFLGDTPLHLAAYHGHLEIVEVLLKHGADVNASDITGETPLHLAAHLGHLEIVEVLLKYGADVNAQDKFGKTAFDISIDNGNEDLAEILQKLN",,,,,,,,263,0.000894,3.4e+06,42.9,132,527,158
"6D4 (designed binder, N-Cap-(AR)3-C-Cap) DLGKKLLEAARAGQDDEVRILMANGADVNAADDYGSTPLHLAARSGHLEIVEVLLKHGADVNANDFIGDTPLHLAAYNGHLEIVEVLLKNGADVNATDITGETPLHLAAERGHLEIVEVLLKNGADVNTQDKFGKTAFDISIDNGNEDLAEILQKLN",,,,,,,,77.6,9.08e-05,1.17e+06,4.2,83.3,51.3,4.8
